Results reported in publication PMC12560246, “Calorimetric characterization of the stability and activity of trimethylamine‐N‐oxide (TMAO) demethylase from Methylocella silvestris BL2” (Protein Science : A Publication of the Protein Society, 2025).
Several values for one entry are separate records, joined by “and”; a condition that tells them apart may be missing. Equal values may be shown once.

B1: Tdm (trimethylamine-N-oxide demethylase) (Methylocella silvestris BL2) (protein)
chain: MNVNAAAPKGSFDLDAPRRVQTLSAAGGGGVQFDLSAGDEAIITNLEGGQAGELLTASGEPLRLTPGSAPTDEAGVRAVAGDLAAAFLAARQGTERFLATPLFHAAAEPGETFRFKAEADMRCLLLAPGEPMAPDAQNPPTELRLDIFSSRPTGGAAPPSLAPVKLDLRVDAATARAYRVSAGDYIQIIDVDGRQCSDLVAFDARALAEGRELGVDPTVTRTLMGSATPGPGLHAKYFDQDMNPLFEIVRDTVGRHDTFMLACNAKYYDDMGYPGHANCTDNFNAALAPFGVAPRRGWPAINFFYNTFVAEDNTIGLDEPWSRPGDYVLLRALTDLVCASSSCADDIDPANGWMPTDIHVRVYDAAASFSKGIAHRMTADAAPRLTRESGFHSRTSALTRSFADYRGFWTPQCYASEGPIAEYWACRERAVLIDLSALRKFEITGPDAEILLQSAVTRNIRKLAVGQIVYTAICHEHGGMLDDGTVFRLGDNNFRLVCGEDYCGVFLRELAARQGLRAFVRSSTDQLHNVALQGPKSRDILREILVTPPHRASADELKWFRFTVGKIAGLPVLVSRTGYTGELGYEIWLHPGSAVAVWDALMAAGKPYGIAPFGFAALDMVRIEAGLIFAHHEFCDETDPFEAGIGFAVPAEKADPYVGSEALARRRASPIRRLAGLDVAGNEAVAHGDPVFAGRAQVGVVTSAMRSPVLGRTIALARLDAACASIGTDLEIGKLDGRQKRIAATVARFPHYDPEKARVRA
notes: GenBank version '.14' [sic]

Key:
[1] = target: trimethylamine-N-oxide demethylase (Tdm) from Methylocella silvestris BL2 (Methylocella silvestris BL2); test: SEC; analytical SEC, HiLoad 16/600 Superdex 200 pg, 50 mM TRIS pH 7.9, 150 mM NaCl, 0.5 mL/min; column calibrated with globular proteins; 0.5 mL of concentrated IMAC fractions injected
[2] = substrate: C[N+](C)(C)[O-]; test: isothermal titration calorimetry, multiple injection, Michaelis-Menten fit; type: biochemical, Methylocella silvestris; conditions: 50 mM KPi pH 7.0, 25 °C, 100 nM Tdm, multiple injections of 600 μM TMAO
Description: isothermal titration calorimetry, multiple injection, Michaelis-Menten fit on Tdm (trimethylamine-N-oxide demethylase)

Molecule	stoichiometry N [1]	Km [2]	Vmax [2]	kcat [2]
trimethylamine-N-oxide demethylase (Tdm) from Methylocella silvestris BL2 (enzyme)	8 and 5			
B1		866 ± 72 µM	18.5 µmol/min	15.48 ± 0.04 s⁻¹
